Assay results as given in patent US20080038748.

Test system: human recombinant LAP β1 (R&D), not treated with protease
Sequence (chain, as listed by the source): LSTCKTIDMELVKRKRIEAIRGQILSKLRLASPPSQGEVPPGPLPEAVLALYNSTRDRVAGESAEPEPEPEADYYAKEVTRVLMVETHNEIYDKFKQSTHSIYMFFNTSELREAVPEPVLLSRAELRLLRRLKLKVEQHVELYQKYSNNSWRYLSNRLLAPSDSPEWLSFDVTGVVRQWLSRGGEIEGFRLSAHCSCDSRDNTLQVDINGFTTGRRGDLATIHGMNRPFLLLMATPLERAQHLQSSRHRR

Chain of human recombinant matrix metalloprotease 3 (MMP3) (Alexis) (chain, as listed by the source): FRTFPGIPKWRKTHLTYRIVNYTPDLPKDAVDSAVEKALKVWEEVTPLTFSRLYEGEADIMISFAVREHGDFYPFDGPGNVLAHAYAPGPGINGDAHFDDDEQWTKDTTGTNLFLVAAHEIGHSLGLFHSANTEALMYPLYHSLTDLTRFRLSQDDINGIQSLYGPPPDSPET
Chain of human plasma kallikrein (Sigma) (chain, as listed by the source): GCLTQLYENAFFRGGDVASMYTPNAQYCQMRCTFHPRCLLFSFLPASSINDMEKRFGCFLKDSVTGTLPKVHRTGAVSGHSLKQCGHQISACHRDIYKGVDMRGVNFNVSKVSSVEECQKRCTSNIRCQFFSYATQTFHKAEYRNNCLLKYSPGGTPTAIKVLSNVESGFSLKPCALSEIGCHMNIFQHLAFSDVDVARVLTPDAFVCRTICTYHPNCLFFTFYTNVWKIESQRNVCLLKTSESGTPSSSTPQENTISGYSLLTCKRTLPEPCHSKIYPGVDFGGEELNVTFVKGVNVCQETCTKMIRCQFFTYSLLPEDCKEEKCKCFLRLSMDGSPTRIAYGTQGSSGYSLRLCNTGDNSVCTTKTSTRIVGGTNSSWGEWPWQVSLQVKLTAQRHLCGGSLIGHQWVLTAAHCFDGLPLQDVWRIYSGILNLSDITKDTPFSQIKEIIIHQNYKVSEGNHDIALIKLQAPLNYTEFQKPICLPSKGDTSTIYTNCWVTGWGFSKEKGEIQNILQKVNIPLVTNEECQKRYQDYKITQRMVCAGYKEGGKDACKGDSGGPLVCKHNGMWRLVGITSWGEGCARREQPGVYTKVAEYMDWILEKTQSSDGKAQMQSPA

Row | Substance | limited degradation; cleavage site by N-terminal sequencing of the fragments
1 | human plasma kallikrein (Sigma) | plasma kallikrein specifically cleaves between 58 Arg and 59 Leu thereof
2 | human recombinant matrix metalloprotease 3 (MMP3) (Alexis) | MMP3 specifically cleaves between 79 Ala and 80 Leu thereof
